Holding throughout (experiment): purified protein
Assay type in all cases: biochemical, uncultured bacterium
Common to all, as to details: hydrolysis, conditions of the kinetic assay not stated separately (general pNP assay: 100 mM sodium phosphate pH 8.0, Triton, 40 °C)

Data set [1] relates to T1, CCCC(=O)Oc1ccc([N+](=O)[O-])cc1.
T1 construct: whole 367-residue ORF with its putative signal peptide, N-terminal 6xHis (pET14b), E. coli BL21(DE3) pLysS, Ni-NTA; forward primer codes MIMKKQNFF; GHSQG with Ser189

Data set [2] has as its system T2, CC(=O)Oc1ccc([N+](=O)[O-])cc1.
T2 construct: whole 367-residue ORF with its putative signal peptide, N-terminal 6xHis (pET14b), E. coli BL21(DE3) pLysS, Ni-NTA; forward primer codes MIMKKQNFF; GHSQG with Ser189

For data set [3], the system named is T3, CCCCCCCCCC(=O)Oc1ccc([N+](=O)[O-])cc1.
T3 construct: whole 367-residue ORF with its putative signal peptide, N-terminal 6xHis (pET14b), E. coli BL21(DE3) pLysS, Ni-NTA; forward primer codes MIMKKQNFF; GHSQG with Ser189

With Est10 (uncultured bacterium), in data set [1], the Km was 0.16 (0.02) mM; the kcat (usually the maximal rate divided by the concentration of active sites) worked out at 3.1 s⁻¹; the kcat/Km (as a rule, the turnover number divided by the Michaelis constant) amounted to 19000 M⁻¹ s⁻¹. In data set [2], the Km was 0.3 (0.1) mM, the catalytic constant (kcat) was 0.22 s⁻¹ and the kcat/Km stood at 800 M⁻¹ s⁻¹. In data set [3], the Km is 0.35 (0.06) mM, the kcat was 0.72 s⁻¹ and the kcat/Km was found to be 2100 M⁻¹ s⁻¹.

These data come from article PMC4431682, “Est10: A Novel Alkaline Esterase Isolated from Bovine Rumen Belonging to the New Family XV of Lipolytic Enzymes” (PLoS ONE, 2015).
